# Measurements as given in patent publication US20150307603A1 (MODIQUEST B V, published 2015).
# Non-standard residues stand in square brackets, D forms with d. No end group written: not given here. Cit = NC(=O)NCCC[C@H](N)C(=O)O
# T1: peptide no. 1 (human histone 2A) (human, also: biotin-labelled)
# T1 construct: also called peptide 1; AAASGXGKQGGK
# T1 peptide: AAASG[Cit]GKQGGK
# T2: peptide no. 2 (human histone 2A) (human, also: biotin-labelled)
# T2 construct: also called peptide 2
# T2 peptide: AKAKS[Cit]SSRAGL
# T3: peptide no. 3 (human histone 2A) (human, also: biotin-labelled)
# T3 construct: also called peptide 3
# T3 peptide: KSRSS[Cit]AGLQFP
# T4: peptide no. 4 (human histone 2A) (human, also: biotin-labelled)
# T4 construct: also called peptide 4
# T4 peptide: QFPVG[Cit]VHRLLR
# T5: peptide no. 5 (human histone 2A) (human, also: biotin-labelled)
# T5 construct: also called peptide 5
# T5 peptide: VGRVH[Cit]LLRKGN
# T6: peptide no. 6 (human histone 2A) (human, also: biotin-labelled)
# T6 construct: also called peptide 6
# T6 peptide: VHRLL[Cit]KGNYSE
# T7: peptide no. 7 (human histone 2A) (human, also: biotin-labelled)
# T7 construct: also called peptide 7
# T7 peptide: GNYSE[Cit]VGAGAP
# T8: peptide no. 8 (human histone 2A) (human, also: biotin-labelled)
# T8 construct: also called peptide 8
# T8 peptide: AGNAA[Cit]DNKKTR
# T9: peptide no. 9 (human histone 2A) (human, also: biotin-labelled)
# T9 construct: also called peptide 9
# T9 peptide: DNKKT[Cit]IIPRHL
# T10: peptide no. 10 (human histone 2A) (human, also: biotin-labelled)
# T10 construct: also called peptide 10
# T10 peptide: TRIIP[Cit]HLQLAI
# T11: peptide no. 11 (human histone 2A) (human, also: biotin-labelled)
# T11 construct: also called peptide 11
# T11 peptide: LQLAI[Cit]NDEELN
# T12: peptide no. 12 (human histone 2A) (human, also: biotin-labelled)
# T12 construct: also called peptide 12
# T12 peptide: NKLLG[Cit]VTIAQG
# Legend:
# [1] = target: T13, CFC-1; test: ELISA, Ab 2 ug/well
# T13 construct: Positive control for anti-citrulline reactivity; also called cfc1 XG; Cfc1-peptide
# Procedure: (§1) Biotin and citrulline-containing peptides derived from histone 2A were immobilized on NEUTRAVIDIN®-coated 96-well ELISA plates (0.3 μg/well). CFC-1 and CFC-0 were coated at the same concentration and served as positive and negative controls, respectively, for specific anti-citrulline reactivity and as coating controls. Non-coated wells were used to test for aspecific binding of the antibodies. […] Detection of bound anti-citrulline antibodies was performed by incubating the wells with rabbit anti-human HRP (1:2000) for 1 hour at RT followed by incubation with TMB substrate. The resulting OD (y-axis) is a measure for antibody binding.
# [2] = target: T1, peptide no. 1 (human histone 2A); test: ELISA, Ab 2 ug/well
# Procedure: as §1
# [3] = target: T2, peptide no. 2 (human histone 2A); test: ELISA, Ab 2 ug/well
# Procedure: as §1
# [4] = target: T3, peptide no. 3 (human histone 2A); test: ELISA, Ab 2 ug/well
# Procedure: as §1
# [5] = target: T4, peptide no. 4 (human histone 2A); test: ELISA, Ab 2 ug/well
# Procedure: as §1
# [6] = target: T5, peptide no. 5 (human histone 2A); test: ELISA, Ab 2 ug/well
# Procedure: as §1
# [7] = target: T6, peptide no. 6 (human histone 2A); test: ELISA, Ab 2 ug/well
# Procedure: as §1
# [8] = target: T7, peptide no. 7 (human histone 2A); test: ELISA, Ab 2 ug/well
# Procedure: as §1
# [9] = target: T8, peptide no. 8 (human histone 2A); test: ELISA, Ab 2 ug/well
# Procedure: as §1
# [10] = target: T9, peptide no. 9 (human histone 2A); test: ELISA, Ab 2 ug/well
# Procedure: as §1
# [11] = target: T10, peptide no. 10 (human histone 2A); test: ELISA, Ab 2 ug/well
# Procedure: as §1
# [12] = target: T11, peptide no. 11 (human histone 2A); test: ELISA, Ab 2 ug/well
# Procedure: as §1
# [13] = target: T12, peptide no. 12 (human histone 2A); test: ELISA, Ab 2 ug/well
# Procedure: as §1
# [14] = target: T14, human recombinant histone 2A (human); test: ELISA, Ab 0.08 ug/well
# T14 construct: Non-deiminated; also called H2A
# Excerpt: (§2) The resulting OD (y-axis) is a measure for antibody binding. H1-recombinant histone 1; H1/p2-huPAD2 recombinant histone 1; H1/p4-huPAD4 recombinant histone 1, and so forth (x-axis).
# [15] = target: T15, huPAD2-deiminated human recombinant histone 2A (human); test: ELISA, Ab 0.08 ug/well
# T15 construct: also called H2A/p2; histone 2A/p2
# Excerpt: as §2
# [16] = target: T16, huPAD2-deiminated human recombinant histone 2B (human); test: ELISA, Ab 0.08 ug/well
# T16 construct: also called H2B/p2
# Excerpt: as §2
# [17] = target: T17, huPAD2-deiminated human recombinant histone 3 (human); test: ELISA, Ab 0.08 ug/well
# T17 construct: also called H3/p2; histone 3/p2
# Excerpt: as §2
# [18] = target: T18, huPAD4-deiminated human recombinant histone 3 (human); test: ELISA, Ab 0.08 ug/well
# T18 construct: also called H3/p4
# Excerpt: as §2
# [19] = target: human recombinant histone 4 (human, UniProt P62805 2-103); test: ELISA, Ab 0.08 ug/well
# Excerpt: as §2
# [20] = target: T13, CFC-1; test: ELISA, Ab 0.08 ug/well
# Excerpt: as §2
# [21] = target: T13, CFC-1; test: ELISA, Ab 0.0032 ug/well
# Procedure: as §1
# [22] = target: T7, peptide no. 7 (human histone 2A); test: ELISA, Ab 0.0032 ug/well
# Procedure: as §1
# [23] = target: T10, peptide no. 10 (human histone 2A); test: ELISA, Ab 0.0032 ug/well
# Procedure: as §1
# [24] = target: T13, CFC-1; test: ELISA, Ab 0.000128 ug/well
# Procedure: as §1
# [25] = target: T1, peptide no. 1 (human histone 2A); test: ELISA, Ab 0.000128 ug/well
# Procedure: as §1
# [26] = target: T2, peptide no. 2 (human histone 2A); test: ELISA, Ab 0.000128 ug/well
# Procedure: as §1
# [27] = target: T3, peptide no. 3 (human histone 2A); test: ELISA, Ab 0.000128 ug/well
# Procedure: as §1
# [28] = target: T5, peptide no. 5 (human histone 2A); test: ELISA, Ab 0.000128 ug/well
# Procedure: as §1
# [29] = target: T6, peptide no. 6 (human histone 2A); test: ELISA, Ab 0.000128 ug/well
# Procedure: as §1
# [30] = target: T8, peptide no. 8 (human histone 2A); test: ELISA, Ab 0.000128 ug/well
# Procedure: as §1
# [31] = target: T9, peptide no. 9 (human histone 2A); test: ELISA, Ab 0.000128 ug/well
# Procedure: as §1
# [32] = target: T10, peptide no. 10 (human histone 2A); test: ELISA, Ab 0.000128 ug/well
# Procedure: as §1
# [33] = target: T11, peptide no. 11 (human histone 2A); test: ELISA, Ab 0.000128 ug/well
# Procedure: as §1
binder,measurement,setting,value
"RhmAb2.102 (antibody, human IgG1, lambda, Human IgG1 lambda; also called Rhm2.102) heavy: not shown light: QSVLTQPPSMSAAPGQKVTISCSGSSSNIGNNYVSWYQQVPGTAPKLLIYDDNKRPSGIPGRFSGSKSATSATLGITGLQAGDEADYYCGSWDDNLSVVLFGGGTKLTVLGQPKAAPSVTLFPPSSEELQANKATLVCLISDFYPGAVTVAWKADSSPVKAGVETTTPSKQSNNKYAASSYLSLTPEQWKSHRSYSCQVTHEGSTVEKTVAPTECS",OD,[1],3.21 OD450
same,OD,[2],3.05 OD450
same,OD,[3],0.27 OD450
same,OD,[4],0.286 OD450
same,OD,[5],1.3 OD450
same,OD,[6],0.111 OD450
same,OD,[7],0.752 OD450
same,OD,[8],0.059 OD450
same,OD,[9],0.06 OD450
same,OD,[10],0.063 OD450
same,OD,[11],0.07 OD450
same,OD,[12],0.067 OD450
same,OD,[13],0.067 OD450
same,OD,[14],0.06 OD450
same,OD,[15],1.96 OD450
same,OD,[16],0.053 OD450
same,OD,[17],0.493 OD450
same,OD,[18],0.093 OD450
same,OD,[19],0.067 OD450
same,OD,[20],2.15 OD450
same,OD,[21],0.916 OD450
same,OD,[22],0.064 OD450
same,OD,[23],0.068 OD450
same,OD,[24],0.749 OD450
same,OD,[25],0.128 OD450
same,OD,[26],0.075 OD450
same,OD,[27],0.063 OD450
same,OD,[28],0.059 OD450
same,OD,[29],0.054 OD450
same,OD,[30],0.055 OD450
same,OD,[31],0.055 OD450
same,OD,[32],0.057 OD450
same,OD,[33],0.059 OD450
